Assay results as given in the DeepSol protein solubility set.

Test: soluble on expression in E. coli; label from the status in PepcDB or PDB records

Sequence | soluble on expression in E. coli
MMEENKRVLLGMSGGTDSSVAAMRLLEAGYEVTGVTFRFYELNDSTEYLEDARHLAERLGIRHITYDAREIFRKQIIEYFVHEYMVGHTPVPCTLCNNYLKWPLLSKIADEMGIFYIATGHYVRKVKVDDTCYITYAADSDKDQTFFLWGLKQDILRRMLLPMGDITKVEARAFAAERGFQKVAVKRDSLGVCFCPMDYRSFLKMWLVSNCQPQVSVGQPQVSAGQTWSAEVRRGRFVDEKGDFIAWHEGYPFYTVGQRRGLGIHLNRAVFVKEIRPEKNEVVLASLQALEKTEMLLKDWNIVNRERLLGHADIIVKIRYRKQENHCTVTVTLDNFLHVQLHEPLTAIASGQAAAFYKDGLLLGGGIIVE | not soluble
MMEITRETMSFTSTTPSARAPLGGRTTGNVTSQDRMLKIVTEMRSGAGSGLSPFGQNAASTIRDSREREKKEMSDLNDRLASYIEKVRFLEAQNRKLAADLDALRSKWGKDTHNIRNMYEGELVDAQKLIDETNKQRKDMEGQLKKMQDELAEMRRKLEDATKGREQDRAKIDALLVTLSNLEAEISLLKRRIAQLEDEVKRIKQENQRLLSELQRARTDLDQETLNRIDYQNQVQTLLEEIDFLRRVHDNEIKELQTLASRDTTPENREFFKNELSSAIRDIREEYDQVNNVHRNDMESWYRLKVQEIQTQSARQNMEQGYAKEEVKRLRTQLSDLRGKLADLESRNSLLEKQIQELNYQLEDDQRSYEAALNDRDSQIRKMREECQALMVELQMLLDTKQTLDAEIAIYRKMLEGEENRAGLKQLVEQVVKTHAITQETDTETMRVVKGETASRQSFQRSAKGNVSIHEASPDGKFIVLQNTHRAKDEAIGEWKLKRRIDGKRENVYTLPRDFVLRAGKTLKIFARNQGVASPPDQLVYDAEDSFGSGNNVQTILFNKEGEERATHIQRQSTA | not soluble
MMEQKQEIHATVSINNVQYEVIKNFRDGFSEEAFKERYAEILNKYDYIVGDWGYEQLRLRGFFDDSNQRATYDTKISTLTEYLYEYCNFGCAHFVLRKVKK | not soluble
MMHQLYPQVAHHYRYELNKDMHIAAAHFIPHEAAGSCANVHGHTYIVNVTIAGDELDESGFLVNFQTLKQLVHRKLDHTLLNDHSDWFDGHDPNRFPTSEVVARTIYETIQRYLDTLPHKPKCLQVFVRETPTSYVVYRPKAGER | soluble
MMIFRFVTTLAASLPLLTFAAPISFSHAKNEAVKIYRDHPVSFYCGCEIRWQGKKGIPDLESCGYQVRKQENRASRIEWEHVVPAWQFGHQLQCWQQGGRKNCTRTSPEFNQMEADLHNLTPAIGEVNGNRSNFSFSQWNGIDGVTYGQCEMQVNFKERTAMPPERARGAIARTYLYMSEQYGLRLSKAQNQLMQAWNNQYPVSEWECVRDQKIEKVQGNSNRFVREQCPN | soluble
MMIMNNFDEKKLIQEFSKIQSELSPRIKLENNFQIEEIQFIAGVDLAYWNVNKTKYGTCCIVIIDYGTKEVVEKVYSYGEIPIPYIPGFLAFRELPLIIEAVKKLTKQPDIYFFDGNGYLHYRHMGIATHASFLLNKPTIGVAKSYLKIRDVDFIMPENLKGSYTDIVINNEVYGRTLRTTKNVKPIFVSCGNWIDLDTSTEIVMNCINNESRLPIPVRLADLETHKMRKKLMEGLEHHHHHH | not soluble
MMIRGIRGATTVERDTEEEILQKTKQLLEKIIEENHTKPEDVVQMLLSATPDLHAVFPAKAVRELSGWQYVPVTCMQEMDVTGGLKKCIRVMMTVQTDVPQDQIRHVYLEKAVVLRPDLSLTKNTEL | soluble
MMIYCARIVAIGLFVADGLTDKMLITFDSNGPKDCLDYSLSLEPSFREESLMILPGDRLLLAGHDYLVTSVGKGAQQALFELGHLTLVFNGDLNACHVGAVHLSGPVPKLRDLHGNLVIEEGRP | soluble
MMKHVFQKGKDTSKPVLLLLHGTGGNELDLLPLAEIVDSEASVLSVRGNVLENGMPRFFRRLAEGIFDEEDLIFRTKELNEFLDEAAKEYKFDRNNIVAIGYSNGANIAASLLFHYENALKGAVLHHPMVPRRGMQLANLAGKSVFIAAGTNDPICSSAESEELKVLLENANANVTMHWENRGHQLTMGEVEKAKEWYDKAF | soluble
MMKKSSDCTEILVGKAASMDGSTIVARNEDGYGPINPIKFVVHPAVDQTGASFTSAVTGVEVPLPDHAYRYTGTPQADQSDGQYEEAGINELNVGMSATETTATNARVLGYDPLVDDGINEEAMITLVLPYIKSAKEGAARLGALIEKYGTGESNSIAFNDQNDVWYLETAGGHHWAAMRLPEDTYAIAPNQTLMQTVDLQDTDNFLVASDLVDFVAQHHLNPTPDTFNFREIFGTHGEDDAYYNTPRTWYGQKLFNPEITDQQPTDQDMPFTRKPAKKLAIEDVQFFLSSHYNGTPYDPFGTYASGSAADQRKYRPIAMDRNQCSSILQIRNDVPADHAAIQWIAMGFFAYAPYVPFFTNITDTPADYQSTTAAVDVANVYWLNKTLSVLIEPHFHDYVEAVNAFRDGCQSYARSRVAATDAAVSGNVSAFLTQSNQITAGEISKRTRELFDTIVKHGLLLSKTAWEKGQNL | not soluble
MMKPIIREAKPQDKPFIEEIAHLTWDGEDYLARVFDEWIKDGNFYVLELNGKVIGTVKLTLLPNRVSWMEGLRVHPNYHGRGFGKMLHNFIVEKGRMMASEGIIDALEFSPYFLNKKIIAMAEKNGFWVKARFFVASVRVGDFKPEEPIRIEPKLEDLTLGIIPVGWRFIKRSEEALEWIRKNAEVYEYNGLKFIGPKKETIFTPLEPGPAVLKALLPAMAWVAREKDKEEFNLMLSSSIKPVLSVFRRIGVYIWDDAKEPNVLVFRKKLKDKKGLIPFVNKWNYNKEY | not soluble
MMKYTAVLDKPVTGNETTGSLPEPLLREALGAALRAFRADKGITLRELAETSRVSPGYLSELERGRKEVSSELLASVCHALGTSVSDVLIEAAGTMAMRSAEADLVRVS | not soluble
MMLITERRSPFYPNIQNVPPSVIRKLVKNKAITLIDVRQPWEYEDHHIPGSILLPLDYFKELFPLVLSKNNLVKNGVAIICEHANRSTWLVYTEPSLFKEVKVYNMLGGIELWMIMGYEIEKGMDDNGTLWYKLLTKNLGLEHHHHHH | not soluble
MMLVTAHDMPIFAPTCNLMTISHQPLPSHLVRKSSSLHIAASTIHVKFIVRSHVIKMIAGIFLVCECHAKGGANSITASKQSPIIADLYDMKILIVFCLSYTNLIASKVKKQ | soluble
MMNSIKFIFLGDVYGKAGRNIIKNNLAQLKSKYQADLVIVNAENTTHGKGLSLKHYEFLKEAGVNYITMGNHTWFQKLDLAVVINKKDLVRPLNLDTSFAFHNLGQGSLVFEFNKAKIRITNLLGTSVPLPFKTTNPFKVLKELILKRDCDLHIVDFHAETTSEKNAFCMAFDGYVTTIFGTHTHVPSADLRITPKGSAYITDVGMCGPGFGSVIGANPEQSIRLFCAGSREHFEVSKCGAQLNGVFFEVDVNTKKVIKTEAIRIVEDDPRYLKQDYFNLI | soluble
MMRTVQLRTLRPCIRAQQQPVRPSTSATAAAATAPAPARKCPSSLFAKLGGREAVEAAVDKFYNKIVADPTVSTYFSNTDMKVQRSKQFAFLAYALGGASEWKGKDMRTAHKDLVPHLSDVHFQAVARHLSDTLTELGVPPEDITDAMAVVASTRTEVLNMPQQ | soluble
MMSACSDFLDREPLTTPNSETFLSNASAVNNYINGLYIALPSFGTYDMGVRGEEKNSDNIVAEVYDKRLNGELQENGGGTTEWQKGYQNLRNVNYFFEYYKVPETEETKDVLSMKGEAYFFRAYWHFYLLTRFGSIPVMDRFWDGNATVGGLQIPPRDRSAVAQFILDDLNTAKGLLHSRSQYKGLRVCKEAAIIMAMRVALYEGTWEKYHKGTDFAAAEDKSADLLGQVLTLGDELFGMGLALNTKATDKNAVNIEDAYAHIFNSKDLSDMTEVVFWKKYSIADGVIHNLSSNLGAGYVDNSGPAGLSQSLVDNYLNADGTPINPADGIFKDFNLTFKGRDGRLLATVMHSNCKFKSTSPESKSKAMLVEEYSEENKQIVRPPYLTEGGPARNATGYHIRMSIDTTYVSGQGETSLPVIRYAEALLAYAEAAEELGKCTPAVLEKTLKPLRERAGVTYKDPSEIDPNFTDFGYTISANLQEIRRERRAELALQGFRLDDLMRWRAHKLIQGKRGTGAYFGTDGVLYKAFDPKNAADLKTILTTDGWLDPQKELLPRGYQFDANRDYLLPVPPSEISLNHELKQNPGWQRK | not soluble
MMSQQFNVAIFGATGAVGETMLEVLQEREFPVDELFLLASERSEGKTYRFNGKTVRVQNVEEFDWSQVHIALFSAGGELSAKWAPIAAEAGVVVIDNTSHFRYDYDIPLVVPEVNPEAIAEFRNRNIIANPNCSTIQMLVALKPIYDAVGIERINVTTYQSVSGAGKAGIDELAGQTAKLLNGYPAETNTFSQQIAFNCIPQIDQFMDNGYTKEEMKMVWETQKIFNDPSIMVNPTCVRVPVFYGHAEAVHVETRAPIDAEQVMDMLEQTDGIELFRGADFPTQVRDAGGKDHVLVGRVRNDISHHSGINLWVVADNVRKGAATNAVQIAELLVRDYF | not soluble
MMSRVTCSHMSFQTAIRPAESVDIADIRRVARATWHTVYDDILGAETVEEHLKEGYTPPLLEQMIELDEVGLFVSTADDDVVAYMSCGMTDATGFGDLDLYVHPDYWGEGIGTELLHRGEQHLHDLSVRKIRDEVLAENEVGNAFYRAHFEKVGQRTAKVGGQEHPVNVYERRL | not soluble
MMTDEERIELQQNNPLHGLKLETLLQELVDFYGWEILDTAMRLNCFNTNPSVASSVKYLKKTEWAREKLENFYLYRFKRMPRASNLEYDKPPRARTFPHGLEPKEPMELTVDSILKSQAKAASAHKARTSNRGGNYRRLEHHHHHH | soluble
MNCESLLTALDVSTLLSTLSSPEKEHRRKRRRGEVANPSNTLDALVARKADDQPFEKRYLSEQEAIEGPDDEIEMKKMELDPDVSTRTCSTCGYQGKWVSEMIRHKRVHTSERPFKCRYCSRTSKWKADLIRHVAKTHGIRVVSKYSRSKVFDATNSSMDSSCSSDSDRCIISEKRTVFYRCQLCSFEDERVSVLNSHVSHLHNTSPCVCRCGAKFEDVQGALAHSNGPCSHVDMIYNVMPTYEKASPLSPCRSESSSDSGIQTDPEEEASIITSSLPTPQLGSSPLLLSPTLPVTPSFLPDIQSALLSLQPNPLMSLYLASLLQSSLLNSPTIPTSFPQIIPTTILTPSQQDEMVDVEM | not soluble
MNDALHIGLPPFLVQANNEPRVLAAPEARMGYVLELVRANIAADGGPFAAAVFERDSGLLIAAGTNRVVPGRCSAAHAEILALSLAQAKLDTHDLSADGLPACELVTSAEPCVMCFGAVIWSGVRSLVCAARSDDVEAIGFDEGPRPENWMGGLEARGITVTTGLLRDAACALLREYNACNGVIYNARCGVHK | soluble
MNDDKDVVIDQIYYISTDPSATTYPTTFSVSLVDNSVAGRPFFYVVGKSTMRVDRNTTLRVEEDSKLVEKYNETYGKKYLPFPEGTYSFSTNEVTINQGDNFSSDTIFISFSNWDKLSKIDKYLLPVSLKAVDDKGAVSMDRNLIYFIADFSTTNTGYNKPAAWKPLDRTDWDVSFSYAYGYDEAQFGGRLAVDGDVSTTWFTWGVVSAGECWWATTLPAPTHLTGFSLTRQTTFGSSYNVREAKVKVKKEGDTEWTEAGLFRFGSFKGNDPQYAVFIPAVENVKEFRIDIVSPADFTGFAELDLYQLEHHHHHH | not soluble
MNDEIKVSVLIITYNQARFIKKAIESALEQKTKFKYEIIVMDDCSSDSTIKIAGKYAEKYTDIIKVYSNNKNLGITKNYKEGFKKCRGEYIAVLEGDDYWNNKQKLQIQSNFLDRHKNFSAVFNRYIIYNAINNSKATQAWRSNTSYETITIEQLTRGNVIGNFSTCMYRKSCVDKVKESLYDMLVYDWMFNMVIAEQKPIAYLPQICSVYRIHSRGTWMGNSVKNRLALTIKLIDVYNAFFGFKYNSNFKLLKKNVYKQLINLEHHHHHH | soluble
